Laboratory results taken from the supplement of paper PMC9170038.

Legend:
[1] = test system: MS2 coat protein; assay: apparent KD of MS2 coat protein, switch ON state; designed switch direction (-1 OFF switch, 1 ON switch): -1; higher = weaker reporter binding; details: FMN input: 0 or 200 uM; Eterna round: R93 (includes R88 designs)
Method in brief: (§1)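 Apparent KD is reported per design as the median of normalised binding-curve fits across its clusters. The RNA switches were made by on-chip transcription from Illumina sequencing clusters. SNAP-549-labelled MS2 coat protein was then added in twofold steps (0.7 or 1.5 nM to 3 µM; 0.8–1.5 h to 10–20 min per step) in 100 mM Tris-HCl pH 7.5, 80 mM KCl, 4 mM MgCl2, without or with constant ligand.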

[2] = test system: MS2 coat protein; assay: apparent KD of MS2 coat protein, switch OFF state (with FMN for OFF switches, without FMN for ON switches); designed switch direction (-1 OFF switch, 1 ON switch): -1; higher = weaker reporter binding; details: FMN input: 0 or 200 uM; Eterna round: R93 (includes R88 designs)
Method in brief: as §1

For “CACGGGUUAGGAUAUGCAUGGUGAAAAGACGCGAUCCUUAGACAUGAGGAUCACCCAUGUAGAAGGAACGCGAU [Reonisar]”, the “apparent KD of MS2 coat protein” value [1] was 17.2 nM and the “apparent KD of MS2 coat protein” value [2] was 15 nM.

In the case of “GAAAAACAUGAGGAUCACCCAUGUCAGGAUAUACAAAAAUAAAUAAAAAUAAAAUAAAGUAGAAGGGACAAAAG [Mat - Same state - Mayanna Mod - D110]”, the “apparent KD of MS2 coat protein” value [1] is reported as 52.9 nM and the “apparent KD of MS2 coat protein” value [2] is reported as 57.3 nM.

For “AACUGACAUGAGGAUCACCCAUGUCAGGAUAUGACUUCGAAAAAUAAAAUAAACGAUGUCAGAAGGGACAUGGG [Design 68: Sub-opt O]”, the “apparent KD of MS2 coat protein” value [1] was 21.2 nM and the “apparent KD of MS2 coat protein” value [2] was 19 nM.

“AAGACUACAGGAUAUACAUGAGGAUCACCCAUGUAACUGACAAGUAGAUGACGGAGAAGUAGAAGGGUAGUCAA [Ruby 36]” was tested, and the “apparent KD of MS2 coat protein” value [1] was 18.5 nM and the “apparent KD of MS2 coat protein” value [2] was 31.8 nM.

In the case of “AUGGUACAUGAGGAUCACCCAUGUCAGGAUAUCGGCUGUGACAUGAAAAAAAUGUUAGUGAGAAGGGACUGUAA [EX1 Malc#18 Mod 4 - Jieux - Exclusion 1]”, the “apparent KD of MS2 coat protein” value [1] is reported as 85.4 nM and the “apparent KD of MS2 coat protein” value [2] is reported as 102 nM.

For “CAACAGUCAGGAUAUGCAAAAAAAACGCAACGCAAAAAAAAGCAGAAGGGACAUGAGGAUCACCCAUGUUGUCG [Exclusion4-03]”, the “apparent KD of MS2 coat protein” value [1] was 29.5 nM and the “apparent KD of MS2 coat protein” value [2] was 22.9 nM.

In the case of “GAAAAACAUGAGGAUCACCCAUGUAAGGAUAUGCUGAAAAACACGGAAAAAACGUGCAGCAGAAGGUACAAAAA [Mat - Exclusion 1 - Eli mod - D92]”, the “apparent KD of MS2 coat protein” value [1] is reported as 15.8 nM and the “apparent KD of MS2 coat protein” value [2] is reported as 28.1 nM.

In the case of “AGCUAGUCAGGAUAUACGAACAGGUCAAAAGACCUGAAGGGACAUGAGGAUCACCCAUGUAGAAGGGACUAGCA [Mat - Exclusion 2 - JL mod - D28]”, the “apparent KD of MS2 coat protein” value [1] is reported as 25.8 nM and the “apparent KD of MS2 coat protein” value [2] is reported as 131 nM.

With “AAAAAACAUGAGGAUCACCCAUGUGAGGAUAUAGGAAAAAAAAAAAAAAAAAAAAAAACUAGAAGGCACAAAAA [Gess I got it^^]” the “apparent KD of MS2 coat protein” value [1] was 35.2 nM and the “apparent KD of MS2 coat protein” value [2] was 41.7 nM.

For “AGUCGGCGAGGAUAUACAUGAGGAUCACCCAUGUGAGAGAAAAAGGUGAGUCAGAAAAGUAGAAGGCGCUGACA [JL Lego Mod 5]”, the “apparent KD of MS2 coat protein” value [1] was 166 nM and the “apparent KD of MS2 coat protein” value [2] was 47.4 nM.

For “AACAAAUGAGGAUAUACAAACAAAAAAAACAAACAAAACAAACAUGAGGAUCACCCAUGUAGAAGGCAUAAACA [JR_Exc002_Sub901]”, the “apparent KD of MS2 coat protein” value [1] was 24.8 nM and the “apparent KD of MS2 coat protein” value [2] was 24.5 nM.

With “AAAACUGGAGGAUAUACAUGAGGAUCACCCAUGUGUGGGUAUACUGUGUCGGCGUCAGGUAGAAGGCCAAAAAA [Gilly Gone Silly 29 - Jieux - Exclusion 3]” the “apparent KD of MS2 coat protein” value [1] was 146 nM and the “apparent KD of MS2 coat protein” value [2] was 151 nM.

With “GAAAAGUCAGGAUAUGUGGAAAAAAUAAAAAAAAUAAAAACACAGAAGGGACAUGAGGAUCACCCAUGUAAAAG [Mat - Exclusion 4 - Mayanna - D141]” the “apparent KD of MS2 coat protein” value [1] was 101 nM and the “apparent KD of MS2 coat protein” value [2] was 62.2 nM.

“GCAAAGUGAGGAUAUACGCGAACAAAAAAAAAAAAGAAAGCGUAGAAGGCACAUGAGGAUCACCCAUGUCCAGC [Alfred 64% 2]” was tested, and the “apparent KD of MS2 coat protein” value [1] was 23.5 nM and the “apparent KD of MS2 coat protein” value [2] was 25.1 nM.

For “AACAGACAUGAGGAUCACCCAUGUGAGGAUAUCCCAAUCGAUAGAACUAGAAUGACAAGGAGAAGGCACAGCAA [JR_Exc001_Sub005]”, the “apparent KD of MS2 coat protein” value [1] was 70.1 nM and the “apparent KD of MS2 coat protein” value [2] was 70.1 nM.

“AAGAACCAAGGAUAUACAAAAUAAAAGAAAAGAAAGAAAGAACAUGAGGAUCACCCAUGUAGAAGGUGGAAGAA [Khaankhre Sobekhotep]” was tested, and the “apparent KD of MS2 coat protein” value [1] was 47.7 nM and the “apparent KD of MS2 coat protein” value [2] was 41.6 nM.

“AAAAAACAUGAGGAUCACCCAUGUGAGGAUAUGGAAAAAUAAGGACAGUAAAGAUAAACCAGAAGGCACAAAUA [JR_Exc001_Sub1101]” was tested, and the “apparent KD of MS2 coat protein” value [1] was 26.4 nM and the “apparent KD of MS2 coat protein” value [2] was 24.1 nM.

For “GCUGUGGUAGGAUAUACAUGAGGAUCACCCAUGUGAGAGAAAAAAGUGAGAAAGAAAAGUAGAAGGACCGUAGG [salish99-ex3-101]”, the “apparent KD of MS2 coat protein” value [1] was 49 nM and the “apparent KD of MS2 coat protein” value [2] was 78.9 nM.

For “AAAAAACAUGAGGAUCACCCAUGUAAGGAUAUGCUCAAGCGAAAAAGCACAAAAAAGAGCAGAAGGUACAAAAA [66%, Wbt, 41]”, the “apparent KD of MS2 coat protein” value [1] was 22.6 nM and the “apparent KD of MS2 coat protein” value [2] was 31 nM.

With “AGCAAGUCAGGAUAUACGAACAAGACAAAAGACGUGAAGGGACAUGAGGAUCACCCAUGUAGAAGGGACAAGCA [74%, Web mod - With 4 less U's]” the “apparent KD of MS2 coat protein” value [1] was 79.1 nM and the “apparent KD of MS2 coat protein” value [2] was 55.8 nM.

In the case of “UAAAAACAUGAGGAUCACCCAUGUAAGGAUAUGCUGAAAAACACGGAAAAAACGUGCAGCAGAAGGUACAAAAU [Mat - Exclusion 1 - Eli mod - D98]”, the “apparent KD of MS2 coat protein” value [1] is reported as 19 nM and the “apparent KD of MS2 coat protein” value [2] is reported as 47.6 nM.

For “CUCAAGUGAGGAUAUCAGUAGUAAAAAAAUAAAAUUACUACUGAGAAGGCACAUGAGGAUCACCCAUGUUCCAA [EX4 342: Super Stable 42]”, the “apparent KD of MS2 coat protein” value [1] was 124 nM and the “apparent KD of MS2 coat protein” value [2] was 181 nM.

In the case of “AGCUAGCAAGGAUAUGCGAACAUGUCAAAAGACGUGAAGGGACAUGAGGAUCACCCAUGUAGAAGGUGCUAGCA [JL 74% mod 9]”, the “apparent KD of MS2 coat protein” value [1] is reported as 35.7 nM and the “apparent KD of MS2 coat protein” value [2] is reported as 27.6 nM.

For “AGUCUGAGAGGAUAUACAUGGAAAAAAAAAGUUAGAUCCCUACAUGAGGAUCACCCAUGUAGAAGGCUCUGACA [Ex2 Design 149: Sub-opt 13]”, the “apparent KD of MS2 coat protein” value [1] was 45.8 nM and the “apparent KD of MS2 coat protein” value [2] was 15.2 nM.

In the case of “UUAAUAGUAGGAUAUACAUGAGGAUCACCCAUGUAGCAACUACACAAAGGAACCUGAUGUAGAAGGACUUCCAG [Attionuson]”, the “apparent KD of MS2 coat protein” value [1] is reported as 12.4 nM and the “apparent KD of MS2 coat protein” value [2] is reported as 13.6 nM.

With “AACUCGUCAGGAUAUGCGCACAGAUAAUACGCUACACAAAUGCAGAAGGGACAUGAGGAUCACCCAUGUAAAUA [JR_Exc004_Sub504]” the “apparent KD of MS2 coat protein” value [1] was 42.6 nM and the “apparent KD of MS2 coat protein” value [2] was 31.2 nM.

With “ACCAAUGGAGGAUAUACAUGAGGAUCACCCAUGUAUAACCUACAUAGGUGAAAAAAAUGUAGAAGGCCAUUGGA [EX3 233: Super Stable 33]” the “apparent KD of MS2 coat protein” value [1] was 31.2 nM and the “apparent KD of MS2 coat protein” value [2] was 16.9 nM.

For “AAAUAGCAAGGAUAUACAUGAGGAUCACCCAUGUGACCCAGGUAUGGCAUAGACUAGAGUAGAAGGUGCAAAUA [Mod 5 of Ex 3 Tesla 8 - Jieux - Exclusion 3]”, the “apparent KD of MS2 coat protein” value [1] was 88.1 nM and the “apparent KD of MS2 coat protein” value [2] was 114 nM.

With “AAGCCACAUGAGGAUCACCCAUGUAAGGAUAUGAACGAAAAUAAAUAAAAAUAAAAGUUCAGAAGGUACAAAAA [66%, Wbt, 23]” the “apparent KD of MS2 coat protein” value [1] was 27.1 nM and the “apparent KD of MS2 coat protein” value [2] was 25.3 nM.

In the case of “AAGAACCAAGGAUAUACAUGAGGAUCACCCAUGUAAAAGAAAGAAGGGAAAGAGAAAAGUAGAAGGUGGAAGAA [Djedkaure Shebitku]”, the “apparent KD of MS2 coat protein” value [1] is reported as 28.3 nM and the “apparent KD of MS2 coat protein” value [2] is reported as 22.7 nM.

“AAAAAACAUGAGGAUCACCCAUGUGAGGAUAUGCAAAACCCAUAUAAAAAGGGAAAAAGUAGAAGGCACAAAAA [wbt round 1 mod 10]” was tested, and the “apparent KD of MS2 coat protein” value [1] was 24.1 nM and the “apparent KD of MS2 coat protein” value [2] was 28.6 nM.

“AACAGUACAGGAUAUACAUGAGGAUCACCCAUGUGAAAAUUAAGUGGCGUACCACAAAGUAGAAGGGUACUGAA [Moding Maslow Revisited (73) 26]” was tested, and the “apparent KD of MS2 coat protein” value [1] was 27.9 nM and the “apparent KD of MS2 coat protein” value [2] was 125 nM.

“CCGAGACAUGAGGAUCACCCAUGUGAGGAUAUAGGUGUAUGCUAAAAAAAGUUAACAACUAGAAGGCACAGAGG [JR_Exc001_Sub308]” was tested, and the “apparent KD of MS2 coat protein” value [1] was 55.7 nM and the “apparent KD of MS2 coat protein” value [2] was 129 nM.

For “AAAAAGUGAGGAUAUGCAGUGUCCUGUAGACGCGAGCACUUGUAGAAGGCACAUGAGGAUCACCCAUGUUUAAA [EX4 Malc#28]”, the “apparent KD of MS2 coat protein” value [1] was 24 nM and the “apparent KD of MS2 coat protein” value [2] was 22.1 nM.

“AACAAACAUGAGGAUCACCCAUGUAAGGAUAUACGAAACAAACAAACAAACAAACAAAGUAGAAGGUACAGGAA [Exclusive 1]” was tested, and the “apparent KD of MS2 coat protein” value [1] was 17.3 nM and the “apparent KD of MS2 coat protein” value [2] was 16.3 nM.

For “CUCUUGUGAGGAUAUGCAAGAAAAGAAAAGAAAGAAAAGAAGCAGAAGGCACAUGAGGAUCACCCAUGUAAGAA [EteRNA is fun!]”, the “apparent KD of MS2 coat protein” value [1] was 53.3 nM and the “apparent KD of MS2 coat protein” value [2] was 25.9 nM.

In the case of “AAAAAACAUGAGGAUCACCCAUGUGAGGAUAUGCAAAACCCAUAUAAAAAGGGAAAAAGCAGAAGGCGCAAAAA [Starry Exclusion 1.4 (wbt round 1 mod)]”, the “apparent KD of MS2 coat protein” value [1] is reported as 26.5 nM and the “apparent KD of MS2 coat protein” value [2] is reported as 24.2 nM.

“AGUCAGAGAGGAUAUACAUAGGAAAAAAAAGUAAGAUCCCUACAUGAGGAUCACCCAUGUAGAAGGCUCUGACA [Ex2 Design 140: Sub-opt 4]” was tested, and the “apparent KD of MS2 coat protein” value [1] was 141 nM and the “apparent KD of MS2 coat protein” value [2] was 87.5 nM.

With “AGUUGGCGAGGAUAUACAUGAGGAUCACCCAUGUGAGAGAAAUAAGUGAGAAAGAAAAGUAGAAGGCGCUCACA [JL Lego Mod 17]” the “apparent KD of MS2 coat protein” value [1] was 68 nM and the “apparent KD of MS2 coat protein” value [2] was 47.4 nM.
